# According to patent publication US20240270821A1, “GIP/GLP1/GCG TRI-RECEPTOR AGONISTS AND USES THEREOF” (priority 2023, published 2024):
# T1: human GIP receptor (human) (UniProt P48546)
# T1 sequence (looked up): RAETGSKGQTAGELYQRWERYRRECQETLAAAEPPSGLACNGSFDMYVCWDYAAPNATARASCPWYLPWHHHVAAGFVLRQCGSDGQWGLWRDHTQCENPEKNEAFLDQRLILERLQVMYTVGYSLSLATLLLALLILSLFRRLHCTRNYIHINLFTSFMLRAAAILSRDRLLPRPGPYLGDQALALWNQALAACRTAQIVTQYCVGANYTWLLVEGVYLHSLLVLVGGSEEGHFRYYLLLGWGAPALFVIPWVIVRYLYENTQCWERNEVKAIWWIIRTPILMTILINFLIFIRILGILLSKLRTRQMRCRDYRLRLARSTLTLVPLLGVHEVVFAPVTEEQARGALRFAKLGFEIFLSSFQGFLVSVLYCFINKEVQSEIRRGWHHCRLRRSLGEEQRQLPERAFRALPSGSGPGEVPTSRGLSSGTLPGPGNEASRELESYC
# What was measured:
# Assay in all cases: cell-based or functional assay
# [1] = target: T1, human GIP receptor (human)
# [2] = target: human glucagon receptor (human) (UniProt P47871)
# hGLP-1R = hGLP-1R (Homo sapiens, UniProt P43220)
# Chain of hGLP-1R (P43220 24-463): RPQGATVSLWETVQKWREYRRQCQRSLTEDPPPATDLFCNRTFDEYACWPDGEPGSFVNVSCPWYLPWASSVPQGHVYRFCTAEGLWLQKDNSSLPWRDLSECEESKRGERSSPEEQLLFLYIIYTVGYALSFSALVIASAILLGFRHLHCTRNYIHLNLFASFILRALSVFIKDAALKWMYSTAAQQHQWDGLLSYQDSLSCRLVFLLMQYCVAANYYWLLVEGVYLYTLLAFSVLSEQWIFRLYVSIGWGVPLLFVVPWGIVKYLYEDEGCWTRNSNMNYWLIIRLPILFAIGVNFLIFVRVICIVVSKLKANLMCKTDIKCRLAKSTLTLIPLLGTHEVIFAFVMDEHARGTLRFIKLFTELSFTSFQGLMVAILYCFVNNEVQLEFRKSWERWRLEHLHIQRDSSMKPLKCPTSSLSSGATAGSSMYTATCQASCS
# Chain of human glucagon receptor (human) (P47871 26-477): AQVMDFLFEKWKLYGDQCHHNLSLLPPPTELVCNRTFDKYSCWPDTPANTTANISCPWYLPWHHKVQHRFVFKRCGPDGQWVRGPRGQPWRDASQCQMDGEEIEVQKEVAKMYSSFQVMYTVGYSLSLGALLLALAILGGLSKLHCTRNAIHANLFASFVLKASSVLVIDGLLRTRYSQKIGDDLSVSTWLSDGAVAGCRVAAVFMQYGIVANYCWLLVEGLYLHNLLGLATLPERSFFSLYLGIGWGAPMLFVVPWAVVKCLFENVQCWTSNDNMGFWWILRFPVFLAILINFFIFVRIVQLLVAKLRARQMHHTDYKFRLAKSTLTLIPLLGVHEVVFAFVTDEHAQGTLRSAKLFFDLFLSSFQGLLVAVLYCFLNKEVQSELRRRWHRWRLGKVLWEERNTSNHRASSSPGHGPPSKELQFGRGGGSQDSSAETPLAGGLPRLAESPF
Binder,Relative cAMP EC50 [1] [nM],"cAMP Rel EC50, nM (1% HSA) [1] [nM]",Relative cAMP EC50 [2] [nM],"cAMP Rel EC50, nM (1% HSA) [2] [nM]",Relative cAMP EC50 (hGLP-1R) [nM],"cAMP Rel EC50, nM (1% HSA) (hGLP-1R) [nM]","Relative cAMP EC50, nM (0.1% casein) [1] [nM]","cAMP Rel EC50 (receptor-expressing HEK-293 cells, 1% HSA) [1] [nM]","Relative cAMP EC50, nM (0.1% casein) [2] [nM]","cAMP Rel EC50 (receptor-expressing HEK-293 cells, 1% HSA) [2] [nM]","Relative cAMP EC50, nM (0.1% casein) (hGLP-1R) [nM]","cAMP Rel EC50 (receptor-expressing HEK-293 cells, 1% HSA) (hGLP-1R) [nM]",cAMP Rel EC50 (in the presence of 1% HSA) [1] [nM],cAMP Rel EC50 (in the presence of 1% HSA) [2] [nM],cAMP Rel EC50 (in the presence of 1% HSA) (hGLP-1R) [nM]
YXQGTXTSDYSILLDKKAQXAFIEYLEEGGPSSGAPPPSEG (synthetic construct; SITE 2: note = 2-Aminoisobutyric Acid; SITE 6: note = alpha-methyl-2-fluoro-L-phenylalanine; SITE 17: note = Lysine is chemically modified through conjugation of the epsilon-amino group of the Lysine side chain with (gamma-Glu)2-CO-(CH2)16-CO2H; SITE 20: note = 2-Aminoisobutyric) [Example 434],0.0226,10.6,2.84,525,0.236,35,,,,,,,,,
YXQGTXTSDYSILLDKKAQXAFIEYLEEGGPSSGAPPPSGE (synthetic construct; SITE 2: note = 2-Aminoisobutyric Acid; SITE 6: note = alpha-methyl-2-fluoro-L-phenylalanine; SITE 17: note = Lysine is chemically modified through conjugation of the epsilon-amino group of the Lysine side chain with (gamma-Glu)2-CO-(CH2)16-CO2H; SITE 20: note = 2-Aminoisobutyric) [Example 435],0.0239,10.3,3.01,334,0.311,33.6,,,,,,,,,
YXQGTXTSDXSIXLDXKAQXAFIEYLEEGGPSSGAPPPS (synthetic construct; SITE 2: note = 2-Aminoisobutyric Acid; SITE 6: note = alpha-methyl-2-fluoro-L-phenylalanine; SITE 10: note = 3-(4-Pyridyl)-L-alanine; SITE 13: note = alpha-methyl-leucine; SITE 16: note = L-ornithine; SITE 17: note = Lysine is chemically modified through conjugation of the epsil) [Example 441],0.0239,1.96,8,855,0.365,24.7,,,,,,,,,
YXQGTXTSDXSIXLDKKAQXAFIEYLEEGGPSSGAPEPS (synthetic construct; SITE 2: note = 2-Aminoisobutyric Acid; SITE 6: note = alpha-methyl-2-fluoro-L-phenylalanine; SITE 10: note = 3-(4-Pyridyl)-L-alanine; SITE 13: note = alpha-methyl-leucine; SITE 17: note = Lysine is chemically modified through conjugation of the epsilon-amino group of the Lysine) [Example 443],0.0291,1.57,6.09,265,0.572,34.3,,,,,,,,,
YXQGTXTSDXSIXLDKKAQXAFIEYLEEGGPSSGEPPPS (synthetic construct; SITE 2: note = 2-Aminoisobutyric Acid; SITE 6: note = alpha-methyl-2-fluoro-L-phenylalanine; SITE 10: note = 3-(4-Pyridyl)-L-alanine; SITE 13: note = alpha-methyl-leucine; SITE 17: note = Lysine is chemically modified through conjugation of the epsilon-amino group of the Lysine) [Example 442],0.0237,1.81,5.66,342,0.267,23.9,,,,,,,,,
YXQGTXTSDXSIXLDKKAQXAFIEYLSEGGPSSGAPPPS (synthetic construct; SITE 2: note = 2-Aminoisobutyric Acid; SITE 6: note = alpha-methyl-2-fluoro-L-phenylalanine; SITE 10: note = 3-(4-Pyridyl)-L-alanine; SITE 13: note = alpha-methyl-leucine; SITE 17: note = Lysine is chemically modified through conjugation of the epsilon-amino group of the Lysine) [Example 446],0.0351,3.01,8.34,516,0.696,24.5,,,,,,,,,
YXQGTXTSDXSIXLDKKAQXAFIEYLEEGGPSSGAPPPE (synthetic construct; SITE 2: note = 2-Aminoisobutyric Acid; SITE 6: note = alpha-methyl-2-fluoro-L-phenylalanine; SITE 10: note = 3-(4-Pyridyl)-L-alanine; SITE 13: note = alpha-methyl-leucine; SITE 17: note = Lysine is chemically modified through conjugation of the epsilon-amino group of the Lysine) [Example 445],0.0206,2.41,10.1,448,0.731,23.2,,,,,,,,,
YXQGTXTSDXXIXLDXKAQXSFIEXLIEGGPSSGEPPPE (synthetic construct; SITE 2: note = 2-Aminoisobutyric Acid; SITE 6: note = alpha-methyl-2-fluoro-L-phenylalanine; SITE 10: note = 3-(4-Pyridyl)-L-alanine; SITE 11: note = alpha-methyl-L-serine; SITE 13: note = alpha-methyl-leucine; SITE 16: note = L-ornithine; SITE 17: note = Lysine is chemically mo) [Example 436],0.0294,1.18,2.27,182,0.173,11.7,,,,,,,,,
YXQGTXTSDXXIXLDXKAQXNFIEXLQEGGPSSGEPPPE (synthetic construct; SITE 2: note = 2-Aminoisobutyric Acid; SITE 6: note = alpha-methyl-2-fluoro-L-phenylalanine; SITE 10: note = 3-(4-Pyridyl)-L-alanine; SITE 11: note = alpha-methyl-L-serine; SITE 13: note = alpha-methyl-leucine; SITE 16: note = L-ornithine; SITE 17: note = Lysine is chemically mo) [Example 450],,,,,,,0.0448,3.75,4.84,553,0.43,18.4,,,
YXQGTXTSDXXIXLDXKAQXXFIEYLLEGGPSSGEPPPE (synthetic construct; SITE 2: note = 2-Aminoisobutyric Acid; SITE 6: note = alpha-methyl-2-fluoro-L-phenylalanine; SITE 10: note = 3-(4-Pyridyl)-L-alanine; SITE 11: note = alpha-methyl-L-serine; SITE 13: note = alpha-methyl-leucine; SITE 16: note = L-ornithine; SITE 17: note = Lysine is chemically mo) [Example 460],,,,,,,0.0624,8.93,1.89,142,0.636,31.1,,,
YXQGTXTSDXXIXLDXIAQXXFIEXLIKGGPSSGEPPPE (not fully specified; synthetic construct; SITE 2: note = 2-Aminoisobutyric Acid; SITE 6: note = alpha-methyl-2-fluoro-L-phenylalanine; SITE 10: note = 3-(4-Pyridyl)-L-alanine; SITE 11: note = alpha-methyl-L-serine; SITE 13: note = alpha-methyl-leucine; SITE 16: note = L-ornithine; SITE 20: note = 2-Aminoisobutyric Acid;) [Example 444],0.0106,1.74,6.49,1280,0.352,54.6,,,,,,,,,
YXQGTXTSDXXIXLDXKAQXXFIEXLSEGGPSSGEPPPE (synthetic construct; SITE 2: note = 2-Aminoisobutyric Acid; SITE 6: note = alpha-methyl-2-fluoro-L-phenylalanine; SITE 10: note = 3-(4-Pyridyl)-L-alanine; SITE 11: note = alpha-methyl-L-serine; SITE 13: note = alpha-methyl-leucine; SITE 16: note = L-ornithine; SITE 17: note = Lysine is chemically mo) [Example 438],0.225,53.8,3.62,431,0.815,41.1,,,,,,,,,
YXQGTXTSDXXIXLDXKAQXTFIEXLIEGGPSSGEPPPE (synthetic construct; SITE 2: note = 2-Aminoisobutyric Acid; SITE 6: note = alpha-methyl-2-fluoro-L-phenylalanine; SITE 10: note = 3-(4-Pyridyl)-L-alanine; SITE 11: note = alpha-methyl-L-serine; SITE 13: note = alpha-methyl-leucine; SITE 16: note = L-ornithine; SITE 17: note = Lysine is chemically mo) [Example 457],,,,,,,0.00918,0.881,2.86,333,0.226,11.7,,,
YXQGTXTSDXXIXLDXKAQXXFIEXLIEGGPSSGEPPPE (synthetic construct; SITE 2: note = 2-Aminoisobutyric Acid; SITE 6: note = alpha-methyl-2-fluoro-L-phenylalanine; SITE 10: note = 3-(4-Pyridyl)-L-alanine; SITE 11: note = alpha-methyl-L-serine; SITE 13: note = alpha-methyl-leucine; SITE 16: note = L-ornithine; SITE 17: note = Lysine is chemically mo) [Example 453],,,,,,,0.0184,1.95,7.37,261,0.374,20.6,,,
YXQGTXTSDXXEXLDXKAQXXFIEXLIEGGPSSGEPPPE (synthetic construct; SITE 2: note = 2-Aminoisobutyric Acid; SITE 6: note = alpha-methyl-2-fluoro-L-phenylalanine; SITE 10: note = 3-(4-Pyridyl)-L-alanine; SITE 11: note = alpha-methyl-L-serine; SITE 13: note = alpha-methyl-leucine; SITE 16: note = L-ornithine; SITE 17: note = Lysine is chemically mo) [Example 447],,,,,,,0.0177,1.81,9.71,1090,0.214,11.3,,,
YXQGTXTSDXXIXLDXKAQXNFIEYLIEGGPSSGEPPPE (synthetic construct; SITE 2: note = 2-Aminoisobutyric Acid; SITE 6: note = alpha-methyl-2-fluoro-L-phenylalanine; SITE 10: note = 3-(4-Pyridyl)-L-alanine; SITE 11: note = alpha-methyl-L-serine; SITE 13: note = alpha-methyl-leucine; SITE 16: note = L-ornithine; SITE 17: note = Lysine is chemically mo) [Example 449],,,,,,,0.0205,1.66,11.5,424,0.568,18.9,,,
YXQGTXTSDXXIXLDXKAQXXFIEXLQEGGPSSGEPPPE (synthetic construct; SITE 2: note = 2-Aminoisobutyric Acid; SITE 6: note = alpha-methyl-2-fluoro-L-phenylalanine; SITE 10: note = 3-(4-Pyridyl)-L-alanine; SITE 11: note = alpha-methyl-L-serine; SITE 13: note = alpha-methyl-leucine; SITE 16: note = L-ornithine; SITE 17: note = Lysine is chemically mo) [Example 439],0.0634,14.6,4.38,165,0.293,15.1,,,,,,,,,
YXQGTXTSDXXIXLDXKAQXXFIEXLAEGGPSSGEPPPE (synthetic construct; SITE 2: note = 2-Aminoisobutyric Acid; SITE 6: note = alpha-methyl-2-fluoro-L-phenylalanine; SITE 10: note = 3-(4-Pyridyl)-L-alanine; SITE 11: note = alpha-methyl-L-serine; SITE 13: note = alpha-methyl-leucine; SITE 16: note = L-ornithine; SITE 17: note = Lysine is chemically mo) [Example 437],0.0872,16.9,1.76,188,0.421,26.9,,,,,,,,,
YXQGTXTSDXXIXLDXKAQXXFIEXLIEGGPSSGEPPPEEG (synthetic construct; SITE 2: note = 2-Aminoisobutyric Acid; SITE 6: note = alpha-methyl-2-fluoro-L-phenylalanine; SITE 10: note = 3-(4-Pyridyl)-L-alanine; SITE 11: note = alpha-methyl-L-serine; SITE 13: note = alpha-methyl-leucine; SITE 16: note = L-ornithine; SITE 17: note = Lysine is chemically mo) [Example 462],,,,,,,0.0148,1.62,1.69,183,0.204,12.9,,,
YXQGTXTSDYSILLDKKAQXAFIEYLEEGGPSSGAPPPSE (synthetic construct; SITE 2: note = 2-Aminoisobutyric Acid; SITE 6: note = alpha-methyl-2-fluoro-L-phenylalanine; SITE 17: note = Lysine is chemically modified through conjugation of the epsilon-amino group of the Lysine side chain with (gamma-Glu)2-CO-(CH2)16-CO2H; SITE 20: note = 2-Aminoisobutyric) [Example 433],0.0206,15.3,5.78,532,0.273,43.4,,,,,,,,,
YXQGTFTSDFSKXLDKKAQXAFIEWLIEGGPSSGAPPPSEG (synthetic construct; SITE 2: note = 2-Aminoisobutyric Acid; SITE 13: note = alpha-methyl-leucine; SITE 17: note = Lysine is chemically modified through conjugation of the epsilon-amino group of the Lysine side chain with (2-[2-(2-Amino-ethoxy)-ethoxy]-acetyl)-(gamma-Glu)-CO-(CH2) 18-CO2H; SITE 20: n) [Example 40],0.139,,12.3,,0.693,,,,,,,,76.7,2750,138
